B3: GST-PRK2_(643-984) WT (domain or fragment)
chain: not shown
modifications: phosphorylated at the activation loop (Thr816 in PRK2)
notes: PKC-related kinase 2 (PRK2/PKN2), catalytic domain with the C-terminal PIF/HM region, lacking the N-terminal 642 residues; also called isolated catalytic domain of PRK2; GST-PRK2 CD WT; source: HEK293T, transient transfection (pEBG2T-derived plasmid), purified
B4: GST-PRK2_(643-984) [T958A] (domain or fragment)
chain: not shown
modifications: phosphorylated at the activation loop (Thr816 in PRK2)
notes: source: HEK293T, transient transfection (pEBG2T-derived plasmid), purified
B6: His-PDK1_(1-556) (enzyme, UniProt O15530 1-556, looked up)
chain: MARTTSQLYDAVPIQSSVVLCSCPSPSMVRTQTESSTPPGIPGGSRQGPAMDGTAAEPRPGAGSLQHAQPPPQPRKKRPEDFKFGKILGEGSFSTVVLARELATSREYAIKILEKRHIIKENKVPYVTRERDVMSRLDHPFFVKLYFTFQDDEKLYFGLSYAKNGELLKYIRKIGSFDETCTRFYTAEIVSALEYLHGKGIIHRDLKPENILLNEDMHIQITDFGTAKVLSPESKQARANSFVGTAQYVSPELLTEKSACKSSDLWALGCIIYQLVAGLPPFRAGNEYLIFQKIIKLEYDFPEKFFPKARDLVEKLLVLDATKRLGCEEMEGYGPLKAHPFFESVTWENLHQQTPPKLTAYLPAMSEDDEDCYGNYDNLLSQFGCMQVSSSSSSHSLSASDTGLPQRSGSNIEQYIHDLDSNSFELDLQFSEDEKRLLLEKQAGGNPWHQFVENNLILKMGPVDKRKGLFARRRQLLLTEGPHLYYVDPVNKVLKGEIPWSQELRPEAKNFKTFFVHTPNRTYYLMDPSGNAHKWCRKIQEVWRQRYQSHPDAAVQ
notes: also called full-length PDK1; His-PDK1 FL; source: Sf9 (Bac-to-Bac), purified (nickel-nitrilotriacetic acid, gel filtration)
B7: His-PDK1_(50-359) (domain or fragment, UniProt O15530 50-359, looked up)
chain: AMDGTAAEPRPGAGSLQHAQPPPQPRKKRPEDFKFGKILGEGSFSTVVLARELATSREYAIKILEKRHIIKENKVPYVTRERDVMSRLDHPFFVKLYFTFQDDEKLYFGLSYAKNGELLKYIRKIGSFDETCTRFYTAEIVSALEYLHGKGIIHRDLKPENILLNEDMHIQITDFGTAKVLSPESKQARANSFVGTAQYVSPELLTEKSACKSSDLWALGCIIYQLVAGLPPFRAGNEYLIFQKIIKLEYDFPEKFFPKARDLVEKLLVLDATKRLGCEEMEGYGPLKAHPFFESVTWENLHQQTPPKLT
notes: also called catalytic domain of PDK1; source: Sf9 (Bac-to-Bac), purified (nickel-nitrilotriacetic acid, gel filtration)

No end group written: not given here. *: point of attachment. Biotin = O=C1N[C@H]2[C@H](CS[C@H]2CCCCC(=O)*)N1

What all share (details): both partners purified
Experiment [1] deals with B7. In words: AlphaScreen or HTRF; competitive displacement of His-PDK1 / GST-PRK2 [T958A] complexes by varied PIFtide; 30 to 40 nM PDK1 versus 5 to 10 nM PRK2; nickel chelate acceptor beads and glutathione donor beads. (In general: In Alpha technology, singlet oxygen from a donor bead excites a nearby acceptor bead.)
The target of experiment [2] is B6. The experiment is described as above.
The target in experiment [3] is B7. In words: AlphaScreen or HTRF; His-tagged PDK1 construct (30 nM) and biotin-PIFtide (Cys → Ser; 10 or 30 nM), cross-titration and displacement by small compounds; nickel chelate and streptavidin-coated beads.
The target of experiment [4] is T1, His-PDK1_(50-359) [PRK2-pocket] (UniProt O15530 50-359, K76Q | I119V | V127L | T128M | R131K | T148C | L155V).
T1 construct: also called PDK1 [PRK2-pocket]; His-PDK1 [PIF-pocket PRK2]; source: Sf9 (Bac-to-Bac), purified (nickel-nitrilotriacetic acid, gel filtration)
T1 sequence (looked up): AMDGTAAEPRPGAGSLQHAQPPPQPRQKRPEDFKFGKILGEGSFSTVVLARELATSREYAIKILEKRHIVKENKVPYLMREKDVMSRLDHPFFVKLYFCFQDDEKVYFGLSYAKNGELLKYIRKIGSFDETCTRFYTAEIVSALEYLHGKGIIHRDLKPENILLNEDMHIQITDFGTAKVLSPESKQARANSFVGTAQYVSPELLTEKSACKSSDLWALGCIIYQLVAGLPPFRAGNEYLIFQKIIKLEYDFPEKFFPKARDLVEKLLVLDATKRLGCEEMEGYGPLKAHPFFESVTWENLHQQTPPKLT
Described as above.

Experiment [5] has as its target B6. In words: AlphaScreen or HTRF; His-PDK1 fixed at 20 nM against varied GST-PRK2 constructs; nickel chelate acceptor beads and glutathione donor beads; 50 mM Tris-HCl pH 7.4 (or 20 mM Hepes pH 7.5), 100 mM NaCl, 1 to 2 mM DTT, 0.01% Tween 20, 0.1% BSA; 90 min at room temperature.
For experiment [6], the target named is B3. In words: AlphaScreen or HTRF; GST-PRK2_(643-984) (1.5 nM) and biotin-PKLtide (75 nM) with varied compounds or 5% DMSO; anti-GST-coated acceptor beads and streptavidin-coated donor beads.
A further experiment addresses T2, GST-PRK2_(1-984) [T958A] (UniProt Q16513 1-984, T958A, phosphorylated at the activation loop (Thr816 in PRK2)).
T2 construct: also called full-length PRK2 T958A; source: HEK293T, transient transfection (pEBG2T-derived plasmid), purified
Nature of the experiment: AlphaScreen or HTRF; competitive displacement of His-PDK1 / GST-PRK2 [T958A] complexes by varied PIFtide; 30 to 40 nM PDK1 versus 5 to 10 nM PRK2; nickel chelate acceptor beads and glutathione donor beads.

A further experiment deals with T3, GST-PRK2_(1-984) WT (UniProt Q16513 1-984, phosphorylated at the activation loop (Thr816 in PRK2)).
T3 construct: also called full-length PRK2; PKN2; source: HEK293T, transient transfection (pEBG2T-derived plasmid), purified
Nature of the experiment: AlphaScreen or HTRF; His-PDK1 fixed at 20 nM against varied GST-PRK2 constructs; nickel chelate acceptor beads and glutathione donor beads; 50 mM Tris-HCl pH 7.4 (or 20 mM Hepes pH 7.5), 100 mM NaCl, 1 to 2 mM DTT, 0.01% Tween 20, 0.1% BSA; 90 min at room temperature.

Experiment [7] addresses B3. Nature of the experiment: AlphaScreen or HTRF; His-PDK1 and GST-PRK2 at fixed concentrations (30 to 50 nM PDK1, 5 to 50 nM PRK2) with varied small compounds (PS210, GSK2334470, UCN-01, Y-27632); nickel chelate acceptor beads and glutathione donor beads.
For experiment [8], the target named is B4. The description is as above.

Experimental findings from publication PMC11357854, “Molecular insights into the regulatory landscape of PKC-related kinase-2 (PRK2/PKN2) using targeted small compounds” (The Journal of Biological Chemistry, 2024) are described below.

B1: PIFtide (peptide)
peptide: REPRILSEEEQEMFRDFDYIADWC
notes: also called polypeptide PIF; HM polypeptide derived from the C terminus of PRK2; source: synthetic peptide (JPT Peptide Technologies)
Consider B1, for which the binding result in the experiment with His-PDK1_(50-359) [1] and in the experiment with His-PDK1_(1-556) [2] was “binds” each time.

B2: biotin-PIFtide (Cys → Ser) (peptide)
peptide: Biotin-REPRILSEEEQEMFRDFDYIADWS
notes: PIFtide, C-terminal region of PRK2, with the last Cys replaced by Ser; source: synthetic peptide (Pepscan)
Consider B2, for which the binding result (with His-PDK1_(50-359) [3]; in experiment [4]) was “binds” each time.
As to B3, in the experiment with His-PDK1_(1-556) [5], the binding result is “binds”.
With B4, the binding result with His-PDK1_(1-556) [2] is “binds”.

B5: biotin-PKLtide (peptide)
peptide: Biotin-PKLQRQKKIFSKQQG
notes: polypeptide comprising the pseudosubstrate PKL region of PRK2; source: synthetic peptide (JPT Peptide Technologies)
In the case of B5, in the experiment with GST-PRK2_(643-984) WT [6], the binding result is “binds”.
As for B6, the binding result with GST-PRK2_(1-984) [T958A] and in the experiment with GST-PRK2_(1-984) WT was “binds” each time.
For B7, the binding result (in the experiment with GST-PRK2_(1-984) [T958A]; with GST-PRK2_(643-984) WT [7]; in experiment [8]; with GST-PRK2_(1-984) WT) was “binds” in each case.
